{"source": "paper PMC7531523", "binders": {"B1": {"name": "tumor necrosis factor receptor superfamily member 4 (OX40), extracellular, soluble portion (domain or fragment)", "chain": "LHCVGDTYPSNDRCCHECRPGNGMVSRCSRSQNTVCRPCGPGFYNDVVSSKPCKPCTWCNLRSGSERKQLCTATQDTVCRCRAGTQPLDSYKPGVDCAPCPPGHFSPGDNQACKPWTNCTLAGKHTLQPASNSSDAICEDRDPPATQPQETQGPPARPITVQPTEAWPRTSQGPSTRPVEVPGGRA", "modifications": "biotin (Sulfo-NHS-LC-biotin) for staining of yeast; not stated for BLI and SPR"}}, "key": {"[1]": {"molecular_target": "epOX40.24.1 scFv displayed on yeast (human)", "assay": "flow cytometry on cells"}, "[2]": {"molecular_target": "epOX40.24.2 scFv displayed on yeast (human)", "assay": "flow cytometry on cells"}, "[3]": {"molecular_target": "rOX40.24.1 scFv displayed on yeast (human)", "assay": "flow cytometry on cells"}, "[4]": {"molecular_target": "rOX40.24.2 scFv displayed on yeast (human)", "assay": "flow cytometry on cells"}, "[5]": {"molecular_target": "epOX40.24.1 full-length human IgG1 (human)", "assay": "BLI"}, "[6]": {"molecular_target": "epOX40.24.2 full-length human IgG1 (human)", "assay": "BLI"}, "[7]": {"molecular_target": "rOX40.24.2 full-length human IgG1 (human)", "assay": "BLI"}}, "data": [{"binder": "B1", "values": [{"measurement": "Kd", "setting": "[1]", "value": 3.8, "unit": "nM"}, {"measurement": "Kd", "setting": "[2]", "value": 7.9, "unit": "nM"}, {"measurement": "Kd", "setting": "[3]", "value": 2.2, "unit": "nM"}, {"measurement": "Kd", "setting": "[4]", "value": 2, "unit": "nM"}, {"measurement": "Kd", "setting": "[5]", "value": 14.4, "unit": "nM"}, {"measurement": "Kd", "setting": "[6]", "value": 3.8, "unit": "nM"}, {"measurement": "Kd", "setting": "[7]", "value": 6.9, "unit": "nM"}]}]}
